Measurements from patent US10851152B2, “Polymerized peptide and gel having collagen-like structure” (WASEDA UNIVERSITY, priority 2015, dated 2020).

Legend:
MDA-MB-231 = assay: Cell adhesion assay on coated 96-well plate, MDA-MB-231; assay type: cell-based, Human; settings: coated 96-well plate
Procedure: D-MEM High Glucose, D-MEM Low Glucose and 0.5% trypsin/EDTA were purchased from Wako Pure Chemical Industries, Ltd. (Osaka); FBS, penicillin. streptomycin (100×) were purchased from Invitrogen (Thermo Fisher Scientific corporation). Human mammary gland cancer (MDA-MB-231) was purchased from ATCC; Human skin fibroblasts (HDF) were purchased from Cell Applications. MDA-MB-231 was cultured using DMEM High Glucose (10% FBS, 100 Units/ml penicillin, 100 μg/ml streptomycin), and then maintained; and HDF was cultured using DMEM Low Glucose (10% FBS, 100 Units/ml penicillin, 100 μg/ml streptomycin), and then maintained. When used in cell adhesion assay and Western blotting, the cells were treated with 0.05% trypsin/EDTA, and then collected in a 15 ml tube to be subjected to centrifugal treatment at 1,200 rpm for four minutes. After the removal of the supernatant, the cells were suspended with an incubation medium by which the cells were incubated at 37° C. for 20 to 30 min and then recovered. Such cell suspension was used for cell adhesion assay and Western blotting.
Type I collagen (KOKEN CO., LTD, Tokyo) and BSA (Jackson Immuno Research Laboratories Inc., USA), in an aqueous solution as 30 μg/ml, were added to a 96-well plate (Nunc MicroWell 96-Well Microplates) by an amount of 50 μl/well, followed by drying the sample for two nights. Collagen-like peptides having no Cys residue were prepared as aqueous solutions of 1 to 3 mg/ml, and then heated at 95° C. for 5 min, followed by storing them at 4° C. overnight to form the triple-helical structure. Then, they were diluted to 30 μg/ml, and then added to a 96-well plate in an amount of 50 μl/well followed by drying them for two nights. Collagen-like peptides having Cys residues were dissolved in a degassed 0.05% (v/v) TFA aqueous solution, followed by preparing to a concentration of 300 μg/ml, and then heating the sample at 80° C. for 5 min. […] Further, a mineral oil was layered on the peptide solution, and such peptide solution was then oxidized at room temperature until thiol could no longer be detected by Ellman's test. […]

[1] = Remaining thiol group (Ellman's reagent) in oxidative polymerization reaction; assay type: physicochemical; settings: 10% DMSO, peptide 1% (w/v)
Procedure: Degassed water was used to prepare a peptide solution having a concentration of 1.11% (w/v), and the solution was then put into a PCR tube. After heating this solution at 80° C. for 5 min, it was then left to sand still at 4° C. overnight. By adding DMSO to this solution, there was prepared a peptide solution having a final concentration of 10% DMSO, peptide 1% (w/v). The PCR tube was then filled with a mineral oil in a way such that the mineral oil covered the surface of the solution. In every measurement, the mineral oil was eliminated from the peptide solution to prepare a peptide solution for oxidation monitoring. Ellman's reagent was prepared in a way such that 9 mg/ml of DTNB was present in 50 mM of a phosphate buffer solution (pH 8.4). 33 mM phosphate buffer solution (pH 8.4) and Ellman's reagent 1.5 mg/ml were left to stand for […], then a light absorbance was then measured after a solution with a final concentration of peptide 0.167 mg/ml. Recorded were changes in absorbance with time, with a moment when DMSO was added being a starting point (0 hour). Since the Ellman's reagent generates 5-mercapto-2-nitrobenzoate (λ max=412 nm, ε=1.55×10^4) depending on the amount of thiol groups (referred to as “SH groups” hereunder) in the peptide, measured was a absorbance at 412 nm. After the measurement, optical path length was compensated by measuring absorbance at 997 nm and 900 nm.

[2] = Hydrogel formation judged by holding of a stainless ball; assay type: physicochemical; design: key to gel formation, Time (hour) 9 / gel formation, Time (hour) 12 / gel formation, Time (hour) 15 / gel formation, Time (hour) 24 / gel formation, Time (hour) 32 / gel formation, Time (hour) 74 / gel formation, Peptide concentration 0.1% (w/v) / gel formation, Peptide concentration 0.2% (w/v) / gel formation, Peptide concentration 0.3% (w/v) / gel formation, Peptide concentration 0.5% (w/v) / gel formation, Peptide concentration 0.7% (w/v) / gel formation, Peptide concentration 1.0% (w/v): ◯: Gelated; X: Failed to gelate; settings: for gel-forming capability / gel formation, Time (hour) 9 / gel formation, Time (hour) 12 / gel formation, Time (hour) 15 / gel formation, Time (hour) 24 / gel formation, Time (hour) 32 / gel formation, Time (hour) 74: 1% (w/v) peptide; for gel-forming capability: 10% DMSO, up to three days; for gel formation, Time (hour) 9: 9 hour; for gel formation, Time (hour) 12: 12 hour; for gel formation, Time (hour) 15: 15 hour; for gel formation, Time (hour) 24: 24 hour; for gel formation, Time (hour) 32: 32 hour; for gel formation, Time (hour) 74: 74 hour
Procedure: Degassed water was used to prepare a peptide solution having a concentration of 1.11% (w/v) or 1.66% (w/v), and the solution was then put into a PCR tube. After heating this solution at 80° C. for 5 min using a polymerase chain reaction (PCR) machine (TaKaRa PCR Thermal Cycler, TAKARA BIO INC.), the solution was then left to stand at 4° C. overnight. By adding DMSO and water to this solution, there was prepared a peptide solution having a concentration of 10% DMSO, 0.1 to 1.5% (w/v). The PCR tube was then filled with a mineral oil in a way such that the mineral oil covered the liquid surface, followed by allowing the solution to stand at room temperature for a given period of time to achieve a gel. Then, gel formation was determined by looking at whether a stainless ball could be held by the gel.

[3] = Hydrogel stability to reduction treatment (DTT) or water with pipetting; assay type: physicochemical; settings: water added instead of reducing solution; pipetting about 90 times/min
Procedure: There, verification was made on whether gel caused a collapse by breaking the disulfide cross-linking by a reduction treatment. A reducing solution of 100 μl (100 mM DTT, 50 mM phosphate buffer solution (pH 8.4)) or water was added to the hydrogel (30 μl) prepared. […] Then, pipetting procedure was respectively performed at a frequency of about 90 times/min and a volume of 100 μl/each time, using a yellow tip (up to 200 μl).

[4] = oxidizing conditions: room temperature, three days

Substance	cell adhesion of MDA-MB-231 (MDA-MB-231)	time in which peptide turned into a gel [1] [h]	gel-forming capability ([2]; room temperature)	gel formation, Time (hour) 9 [2]	gel formation, Time (hour) 12 [2]	gel formation, Time (hour) 15 [2]	gel formation, Time (hour) 24 [2]	gel formation, Time (hour) 32 [2]	gel formation, Time (hour) 74 [2]	gel formation, Peptide concentration 0.1% (w/v) ([2]; oxidizing conditions: room temperature, three days, 0.1% (w/v))	gel formation, Peptide concentration 0.2% (w/v) ([2]; oxidizing conditions: room temperature, three days, 0.2% (w/v))	gel formation, Peptide concentration 0.3% (w/v) [2, 4]	gel formation, Peptide concentration 0.5% (w/v) [2, 4]	gel formation, Peptide concentration 0.7% (w/v) [2, 4]	gel formation, Peptide concentration 1.0% (w/v) [2, 4]	concentration at which peptide still turned into a gel ([2]; room temperature, three days)	gel collapse on adding water [3]	ratio of SH amount ([1]; SH amount at 0 hour being 100%, 74 hours)
gelatin	Significant cell adhesion was observed	–	–	–	–	–	–	–	–	–	–	–	–	–	–	–	–	–
CCCC(POG)6PRG(POG)5CCGC [CCCC2]	–	12	capable of turning into gels	X	◯	◯	◯	◯	◯	X	X	◯	◯	◯	◯	0.3 % (w/v)	gel collapse was not observed	–
CCC(POG)6PRG(POG)5CCC (CCCPPGPPGPPGPPGPPGPPGPRGPPGPPGPPGPPGPPGCCC; not fully specified; hydroxyproline; MOD_RES (5)..(5) 4-Hydroxyproline; MOD_RES (8)..(8) 4-Hydroxyproline; MOD_RES (11)..(11) 4-Hydroxyproline; MOD_RES (14)..(14) 4-Hydroxyproline; MOD_RES (17)..(17) 4-Hydroxyproline; MOD_RES (20)..(20) 4-Hydroxyproline; MOD_RES (26)..(26) 4-Hydroxyproline; MOD_RES (29)..(29) 4-Hydroxyproline; MOD_RES (32)..(32) 4-Hydroxyproline; MOD_RES (35)..(35) 4-Hydroxyproline; MOD_RES (38)..(38) 4-Hydroxyprolin) [CCC2]	–	24	capable of turning into gels	X	X	X	◯	◯	◯	–	–	X	◯	◯	◯	–	gel collapse was not observed	–
YCC(POG)6PRG(POG)5CCY (YCCPPGPPGPPGPPGPPGPPGPRGPPGPPGPPGPPGPPGCCY; not fully specified; hydroxyproline; MOD_RES (5)..(5) 4-Hydroxyproline; MOD_RES (8)..(8) 4-Hydroxyproline; MOD_RES (11)..(11) 4-Hydroxyproline; MOD_RES (14)..(14) 4-Hydroxyproline; MOD_RES (17)..(17) 4-Hydroxyproline; MOD_RES (20)..(20) 4-Hydroxyproline; MOD_RES (26)..(26) 4-Hydroxyproline; MOD_RES (29)..(29) 4-Hydroxyproline; MOD_RES (32)..(32) 4-Hydroxyproline; MOD_RES (35)..(35) 4-Hydroxyproline; MOD_RES (38)..(38) 4-Hydroxyprolin) [YCC2]	–	74	capable of turning into gels	X	X	X	X	X	◯	–	–	X	X	X	◯	–	gel collapse was observed	–
(POG)6PRG(POG)5CC (PPGPPGPPGPPGPPGPPGPRGPPGPPGPPGPPGPPGCC; not fully specified; hydroxyproline; MOD_RES (2)..(2) 4-Hydroxyproline; MOD_RES (5)..(5) 4-Hydroxyproline; MOD_RES (8)..(8) 4-Hydroxyproline; MOD_RES (11)..(11) 4-Hydroxyproline; MOD_RES (14)..(14) 4-Hydroxyproline; MOD_RES (17)..(17) 4-Hydroxyproline; MOD_RES (23)..(23) 4-Hydroxyproline; MOD_RES (26)..(26) 4-Hydroxyproline; MOD_RES (29)..(29) 4-Hydroxyproline; MOD_RES (32)..(32) 4-Hydroxyproline; MOD_RES (35)..(35) 4-Hydroxyproline) [CC1]	–	–	did not turn into a gel	–	–	–	–	–	–	–	–	–	–	–	–	–	–	approximately 0%
